The source of these data is publication PMC7000712, “A kinetic method for measuring agonist efficacy and ligand bias using high resolution biosensors and a kinetic data analysis framework” (Scientific Reports, 2020).

The target of test [1] is angiotensin AT1 receptor (UniProt P30556).
Another test relates to β2-adrenoceptor. The test can be described thus: Arrestin sensor response via the β2-adrenoceptor. In kind it is cell-based. To be noted: 10 μM isoproterenol; cells also transduced with GPCR kinase 2; n = 4; Biotek Synergy Mx. The method, then:
(§1) HEK 293 T cells were cultured in Eagle’s minimum essential media (EMEM) supplemented with 10% fetal bovine serum (FBS) and penicillin-streptomycin at 37 °C in 5% CO2. For BacMam transduction, cells were resuspended in media at a density of 52,000 cells per 100 μL. […] For each experiment 4.24 × 10^8 viral genes of arrestin virus were added to each well. For multiplex experiments, 4.79 × 10^8 viral genes of the Red DAG sensor or 6.18 × 10^8. Viral genes of the Red cADDis (cAMP) sensor were added with the arrestin sensor. For experiments with the R-GECO sensor, 8.46 × 10^8 viral genes were added to each well. The viruses carrying the AT1 and V2 receptors were added such that 2.12 × 10^8 and 3.04 × 10^8 viral genes went into each well, respectively. For the β2-adrenoceptor experiment, 4.28 × 10^8 viral genes for the receptor and 2.13 × 10^8 viral genes of GPCR kinase 2 were added to each well. The cell/transduction mixture was then seeded into 96-well plates and incubated for ~24 hours at 37 °C in 5% CO2. Thirty minutes prior to fluorescence plate reader or imaging experiments, the media in each well was replaced with 150 μL of Dulbecco’s phosphate buffered saline (DPBS) supplemented with Ca^2+ (0.9 mM) and Mg^2+ (0.5 mM).
Fluorescence plate reader experiments were performed on the BioTek Synergy Mx (BioTek, Winooski, VT) and BMG CLARIOstar (BMG Labtech, Cary, NC) in 96 well plates.

The subject of test [2] is parathyroid hormone 1 (PTH1) receptor. To be noted: endosomal compartment; cited from earlier work. The text has this:
The kinetics/dynamics of G-protein-coupled receptor (GPCR) signaling is of increasing interest in elaborating the biology and therapeutic potential of these receptors[1]–[3]. The time frame of GPCR signal transduction is dependent on the signaling pathway, regulation of signaling mechanism, and location of the receptor in the cell (spatiotemporal signaling). Temporal dynamics of signaling are being elucidated and applied to develop new therapeutics. For example, the parathyroid hormone 1 (PTH1) receptor can signal persistently over time after partitioning into the endosomal compartment. Thi ...

The target of test [3] is angiotensin AT1 receptor (UniProt P30556). The test can be described thus: conformation-sensitive fluorescent arrestin biosensor in live cells; as a6, 32 μM SII.
For test [4] the target is unchanged. The test can be described thus: conformation-sensitive fluorescent arrestin biosensor in live cells; as a1, concentration-response with the agonist SII.
Test [5] shares this target. The test can be described thus: conformation-sensitive fluorescent arrestin biosensor in live cells; as a1, concentration-response with the agonist TRV026 (TRV120026).
Test [6] has the same target. The test can be described thus: conformation-sensitive fluorescent arrestin biosensor in live cells; HEK 293 T cells with sensor and AT1 receptor; single maximally-stimulating concentration, 32 μM AngII; time course fit to the association exponential, kτ = Plateau x kobs; ΔF/F normalised to baseline; Biotek Synergy Mx (Fig. 5a) or BMG CLARIOstar (Fig. 1b).
Test [7] shares this target. The test can be described thus: conformation-sensitive fluorescent arrestin biosensor in live cells; as a1, concentration-response with the agonist TRV045 (TRV120045).
For test [8] the target is unchanged. Kind of test: conformation-sensitive fluorescent arrestin biosensor in live cells; HEK 293 T cells with sensor and AT1 receptor; AngII 10 nM-32 μM; time courses fit to the association exponential, Plateau x kobs against concentration fit to a sigmoid, kτ is its top; DPBS with Ca2+ and Mg2+; Biotek Synergy Mx.
Test [9] shares this target. The test can be described thus: conformation-sensitive fluorescent arrestin biosensor in live cells; as a6, 32 μM TRV120055.
Test [10] shares this target. Kind of test: conformation-sensitive fluorescent arrestin biosensor in live cells; as a6, 32 μM TRV120026.
Test [11] has the same target. Kind of test: conformation-sensitive fluorescent arrestin biosensor in live cells; as a6, 32 μM TRV120045.
The target is the same in test [12]. The test can be described thus: conformation-sensitive fluorescent arrestin biosensor in live cells; as a1, concentration-response with the agonist TRV055 (TRV120055).
For test [13], the target named is T1, angiotensin AT1 receptor (Homo sapiens, UniProt P30556).
T1 construct: The unmodified receptor can be used, providing estimates of authentic rather than forced coupling to arrestin; host or cells: HEK 293 T cells, BacMam transduction, CMV promoter
T1 sequence (P30556 1-359): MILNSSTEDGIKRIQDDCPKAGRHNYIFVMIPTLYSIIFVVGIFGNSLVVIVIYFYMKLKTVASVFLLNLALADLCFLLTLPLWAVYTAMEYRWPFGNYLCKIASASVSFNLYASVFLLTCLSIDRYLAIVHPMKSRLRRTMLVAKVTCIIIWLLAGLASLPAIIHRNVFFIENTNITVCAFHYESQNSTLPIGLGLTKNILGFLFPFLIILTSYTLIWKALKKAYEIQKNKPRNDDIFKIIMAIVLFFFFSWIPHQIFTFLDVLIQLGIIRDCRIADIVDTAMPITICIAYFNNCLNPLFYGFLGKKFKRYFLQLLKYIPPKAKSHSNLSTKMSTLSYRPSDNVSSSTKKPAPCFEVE
Kind of test: Arrestin-3 (β-arrestin2) mNeonGreen biosensor recruitment, AT1 receptor, HEK 293 T cells (time course). In kind it is cell-based.
Source text: We and others have developed fluorescent biosensors in which intrinsically fluorescent protein sensors have been incorporated. (Three examples used in this study are R-GECO[22] for Ca^2+, Downward DAG for DAG and cADDis for cAMP[21]). The protein sensors have been engineered to be conformationally-sensitive, such that interaction with the signaling molecule of interest changes the optical properties, enabling the interaction to be detected as a change of fluorescence intensity. Since the proteins are intrinsically fluorescent, no chemical tagging or substrate addition is necessary to generate the optical signal. Here this approach was used to develop a biosensor of receptor-arrestin interaction (Fig. 1a).
We used the kτ method to quantify the kinetics of arrestin recruitment of five AT1 receptor ligands with known varying degrees of arrestin recruitment and bias. The method for quantifying kτ is as follows (illustrated schematically in Supplementary Fig. S5). […] From these fits the fitted parameter values were taken for Plateau and kobs. These values were then multiplied together. […] The data were then fit to the sigmoid curve equation, for example the “log(agonist) vs. response–Variable slope” equation in Prism[46]. From this fit kτ was obtained - it is the value of the asymptote. More precisely, kτ is the Plateau x kobs value for a maximally-effective concentration of ligand.
All that is required is a time course of response measurement at a single, maximally-stimulating concentration of ligand (maximally-stimulating at all time points). […] The data were fit to the association exponential equation to determine Plateau and kobs. kτ was then calculated - it is the Plateau multiplied by kobs for a maximally-stimulating concentration of ligand, as explained in the Appendix.
The first biosensors that positioned analyte binding domains in this position used a circularly permuted version of the fluorescent protein, and include the GCaMP and GECO Ca^2+ sensors, the upward and downward DAG sensors, and the caDDis cAMP sensor[21],[22]. More recently it has become clearer that if the termini of the analyte binding domain are close to one another, then the entire binding domain can be inserted into the 7th stave of the fluorescent protein without having to circularly permute the fluorescent protein[60].
as §1, with “well.” for “well. The cell/transduction mixture was then seeded into 96-well plates and incubated for ~24 hours at 37 °C in 5% CO2. Thirty minutes prior to fluorescence plate reader or imaging experiments, the media in each well was replaced with 150 μL of Dulbecco’s phosphate buffered saline (DPBS) supplemented with Ca^2+ (0.9 mM) and Mg^2+ (0.5 mM).”

In test [14] the target is T1, angiotensin AT1 receptor. The test can be described thus: Ca^2+ mobilization, R-GECO sensor, AT1 receptor, HEK 293 T cells. In kind it is cell-based. Conditions: 32 μM; mean kτ of ligand divided by that for AngII. The text has this: Biased agonism quantification relates the capacity of a ligand to activate one pathway relative to one or more other pathways[9]–[12]. Numerous methods and scales have been developed and successfully applied[8],[47],[53]–[59]. One approach is to compare ligand efficacy, i.e. the capacity of the agonist-occupied receptor to generate the signal. kτ provides such an efficacy value, being the initial rate of signal generation by the agonist-occupied receptor. Here kτ is used to assess signaling bias of the AT1 receptor ligands described above. […] In this study, G-protein signaling and arrestin recruitment was measured using the same fluorescent biosensor assay modality, enabling near-identical conditions to be employed in comparing the pathways. The Gq pathway was quantified at the level of diacylglycerol using the Red Downward DAG sensor[21] (Fig. 5b), and, one step downstream, Ca^2+ mobilization measured using the R-GECO sensor[22] […]
HEK 293 T cells were cultured in Eagle’s minimum essential media (EMEM) supplemented with 10% fetal bovine serum (FBS) and penicillin-streptomycin at 37 °C in 5% CO2. […] Thirty minutes prior to fluorescence plate reader or imaging experiments, the media in each well was replaced with 150 μL of Dulbecco’s phosphate buffered saline (DPBS) supplemented with Ca^2+ (0.9 mM) and Mg^2+ (0.5 mM). […]

With “[sarcosine^1, Ile^4, Ile^8]AngII (peptide)”, in the test with angiotensin AT1 receptor [1], the KA from the operational model fit of the arrestin sensor concentration-response at the single time point 1 min came out at 1200 nM and the KA from the operational model fit of the arrestin sensor concentration-response at the single time point 20 min stood at 530 nM.

Turning to `CC(C)NCC(O)c1ccc(O)c(O)c1` (stereo not shown) [isoproterenol], the “ΔF/F, β2-adrenoceptor” value in the test on β2-adrenoceptor turned out to be 0.84.

Consider parathyroid hormone [PTH], for which the “persistent signaling (in words)” value in test [2] is “persistent signaling”.

As to “arrestin-3 (β-arrestin2) fluorescent biosensor incorporating mNeonGreen (from UniProt P32121 1-409)”, the kτ (initial rate of arrestin recruitment) with 32 μM SII with angiotensin AT1 receptor [3] is 0.2 NFU.min^-1. The same compound yielded a kτ (initial rate of arrestin recruitment) with SII in the test with angiotensin AT1 receptor [4] of 0.2 NFU.min^-1. The compound also returned a kτ (initial rate of arrestin recruitment) with TRV026 with angiotensin AT1 receptor [5] of 0.25 NFU.min^-1. Besides, in the test with angiotensin AT1 receptor [6], the kτ (initial rate of arrestin recruitment) with 32 μM AngII was determined as 0.4 NFU.min^-1, the t1/2 of arrestin recruitment (0.693/kobs) with 32 μM AngII turned out to be 45 s and the ΔF/F (fluorescence after agonist divided by baseline) with 32 µM AngII turned out to be 0.56. This compound had a kτ (initial rate of arrestin recruitment) with TRV045 in the test with angiotensin AT1 receptor [7] of 0.36 NFU.min^-1. Further, the kτ (initial rate of arrestin recruitment) with AngII with angiotensin AT1 receptor [8] was found to be 0.41 NFU.min^-1. The same compound came in with a kτ (initial rate of arrestin recruitment) with 32 μM TRV120055 with angiotensin AT1 receptor [9] of 0.37 NFU.min^-1. The compound also yielded a kτ (initial rate of arrestin recruitment) with 32 μM TRV120026 with angiotensin AT1 receptor [10] of 0.25 NFU.min^-1. In the test with angiotensin AT1 receptor [11], this compound showed a kτ (initial rate of arrestin recruitment) with 32 μM TRV120045 of 0.38 NFU.min^-1. In the test with angiotensin AT1 receptor [12], this compound came in with a kτ (initial rate of arrestin recruitment) with TRV055 of 0.38 NFU.min^-1.

As a reminder, the EC50 is the concentration that produces a half-maximal response. Higher therefore signals weaker potency. On to `CC[C@H](C)[C@H](NC(=O)[C@@H]1CCCN1C(=O)[C@H](Cc1c[nH]cn1)NC(=O)[C@@H](NC(=O)[C@@H](NC(=O)[C@@H](NC(=O)[C@H](CCCNC(=N)N)NC(=O)CNC)C(C)C)[C@@H](C)CC)[C@@H](C)CC)C(=O)O` [SII, [sarcosine^1, Ile^4, Ile^8]AngII], for which the “kτ (% AngII), arrestin (single concentration)” value on angiotensin AT1 receptor [13] (32 μM, mean kτ of ligand divided by that for AngII) is 49 % AngII. In addition, at angiotensin AT1 receptor [13] (1 min (rise phase), sigmoid fit, representative experiments), the “Emax, 1 minute time point” value is 64 % Ang II. Also, the “Emax, 20 minute time point” value at angiotensin AT1 receptor [13] (20 min (plateau), sigmoid fit, representative experiments) came out at 88 % Ang II. The EC50 on angiotensin AT1 receptor [13] (EC50, 1 minute time point, 1 min (rise phase), sigmoid fit, representative experiments) was found to be 0.62 µM; at angiotensin AT1 receptor [13] (EC50, 20 minute time point, 20 min (plateau), sigmoid fit, representative experiments), 0.21 µM. The Kd at angiotensin AT1 receptor [13] (calculated from the mean pKA value, L50 of Plateau × kobs vs concentration curve, read-out: KA) was 1.1 µM. Further, the “kτ (% AngII), arrestin (concentration-response)” value at angiotensin AT1 receptor [13] (concentration-response method, mean kτ of ligand divided by that for AngII) stood at 48 % AngII. In addition, at angiotensin AT1 receptor [13] (concentration-response of the initial rate, repeated from Table 1 in Supplementary Table S2), the “Emax, kinetic model initial rate” value is given as 48 % Ang II. Further, the “kτ (% AngII), calcium” value on angiotensin AT1 receptor [14] is listed as 12 % AngII.
